The values that follow come from PMC12574955, “The Ync13–Rga7–Rng10 complex selectively coordinates secretory vesicle trafficking and secondary septum formation during cytokinesis” (PLOS Biology, 2025).

The assay deals with T1, MBP-Ync13-6xHis (Schizosaccharomyces pombe, UniProt O13683 1-1237).
T1 construct: Ync13, Munc13/UNC-13 family protein of Schizosaccharomyces pombe; FL cDNA in pET21a-MBP; MBP-TEV-GGSGGS precedes Ync13; also called MBP-Ync13-6His; not shown: MBP, N-terminal, kept; His6, C-terminal, kept
T1 sequence (looked up): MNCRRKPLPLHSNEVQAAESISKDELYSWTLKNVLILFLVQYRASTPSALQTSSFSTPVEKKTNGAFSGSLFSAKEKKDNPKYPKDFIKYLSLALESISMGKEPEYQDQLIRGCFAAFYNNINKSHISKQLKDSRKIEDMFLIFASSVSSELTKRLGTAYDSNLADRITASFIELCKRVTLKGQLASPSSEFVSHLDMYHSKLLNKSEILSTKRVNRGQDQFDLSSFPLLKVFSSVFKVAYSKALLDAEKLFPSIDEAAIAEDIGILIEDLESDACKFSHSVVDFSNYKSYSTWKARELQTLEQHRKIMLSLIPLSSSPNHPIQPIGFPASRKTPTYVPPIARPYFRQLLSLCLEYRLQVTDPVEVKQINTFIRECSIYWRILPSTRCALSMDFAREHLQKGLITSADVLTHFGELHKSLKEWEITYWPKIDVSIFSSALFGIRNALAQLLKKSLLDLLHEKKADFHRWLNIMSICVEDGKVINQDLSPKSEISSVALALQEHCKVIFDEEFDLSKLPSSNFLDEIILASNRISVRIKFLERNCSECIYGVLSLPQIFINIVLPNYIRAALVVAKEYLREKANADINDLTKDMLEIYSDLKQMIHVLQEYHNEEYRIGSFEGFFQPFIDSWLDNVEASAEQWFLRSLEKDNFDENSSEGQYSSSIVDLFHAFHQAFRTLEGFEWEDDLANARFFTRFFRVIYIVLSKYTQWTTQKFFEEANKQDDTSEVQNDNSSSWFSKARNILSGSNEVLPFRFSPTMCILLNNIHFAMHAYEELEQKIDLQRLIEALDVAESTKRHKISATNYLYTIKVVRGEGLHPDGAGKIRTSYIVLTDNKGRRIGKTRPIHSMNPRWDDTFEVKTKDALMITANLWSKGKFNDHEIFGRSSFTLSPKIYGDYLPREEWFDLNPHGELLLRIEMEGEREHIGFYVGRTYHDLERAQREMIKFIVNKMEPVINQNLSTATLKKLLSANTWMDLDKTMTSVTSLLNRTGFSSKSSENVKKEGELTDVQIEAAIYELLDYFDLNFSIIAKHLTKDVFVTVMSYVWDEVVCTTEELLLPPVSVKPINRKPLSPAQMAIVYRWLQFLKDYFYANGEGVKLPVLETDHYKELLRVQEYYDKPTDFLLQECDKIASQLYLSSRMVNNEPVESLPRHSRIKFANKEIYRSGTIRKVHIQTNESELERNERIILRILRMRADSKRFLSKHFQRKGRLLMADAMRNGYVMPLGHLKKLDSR
The assay is described as follows: supernatant depletion assay; Rga7-6xHis at 4 µM titrated with MBP-Ync13-6xHis immobilized on Cobalt beads; beads pelleted at 16,000g, supernatant on SDS-PAGE, Coomassie, bound fraction fitted. To be noted: both partners purified.

B1: Rga7-6xHis (natural protein, Schizosaccharomyces pombe, UniProt O94466 1-695, looked up)
chain: MLSAPSSSTTPASPPTSPPNTTSSDDFAVLKEPKVEAILNSELGLAILNDRIKDYLLTCKELAGFFKKRSILEEESGKNLQKLAKSYLETFQSKHHSPQSFSASVITSMEIHEQLANHSLTLQKTLSAFSDQVIEFHKNAERKRKSIKEYAKKQENAYLEAVMQMDKSKSRFKGAETEYNRALDNKNTGDSQKKVGFFKPKSNAQLTKLEDEARLKAENAESDMHSKIENAQNVQKQLLCIHRPNYIKQFFSLQREIESSLIANYLRYTKLCESNTLLNGLTIRPQKPTPTNCGLQHALDNINANTDFVQYVLHASIKHEDNKNPTDASKTKIIQPPSSYGTGSSAGKTNPPVNPTIKVTAAIPSPLQNTNPAPSTFPNPSVASPAFPNSSTSNPSTAPASASPLASTLKPSTANDTNGSSSSSSSNPRTSSPLASNAENKPPVAQQSPPVLLPTLPPIQTTTIQTSREVAPPPSSINSNRAASPFRPTSVSPQPSSPTKSLLFGARLDAIILREHSNIPNIVMQCTSQVENFGLNLQGIYRVPSSSARVNMLRSQFENNPLLQLHTPEDYENDVHAVADLLKIFFRELREPLIPDNHQRDFIDAGNVEDESRRRDAVHRAINDLPDANYSTIRHLTIHLAKIKENSDVNKMSTNNLAIIWGPTIIKQATIPEISSFSRTIEILIDYCFTIFDYD
notes: Rga7, F-BAR protein and Rho2 GAP of Schizosaccharomyces pombe; FL Rga7 in pET21a; also called Rga7-6His; not shown: His6, C-terminal, kept
By Kd is commonly meant the constant that tells how readily two partners part at equilibrium. A higher Kd goes with a looser complex. As for B1, binding was put at a Kd of 10 µM.
